Measured values reported in the supplement of paper PMC5998384.

Experiments:
HeLa Kyoto [1] = test: solubility change mitosis vs G1/S (difference of NP-40 vs SDS log2 ratios) (log2 ratio difference); higher = more soluble in mitosis
HeLa Kyoto [2] = test: solubility in G1/S (NP-40 vs SDS abundance) (log2 ratio); higher = more soluble; details: cell cycle stage: G1/S
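Wherever solubility change mitosis vs G1/S (difference of NP-40 vs SDS log2 ratios) is given: synchronized HeLa Kyoto cells (double thymidine block for G1/S, nocodazole release for mitosis), protein amounts in NP-40 versus SDS lysates quantified by mass spectrometry, three biological replicates.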
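Wherever solubility in G1/S (NP-40 vs SDS abundance) is given: HeLa Kyoto cells arrested at G1/S by double thymidine block, proteins quantified by TMT10plex mass spectrometry in mild NP-40 versus SDS extracts, three biological replicates.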

Sequence | solubility change mitosis (log2) (HeLa Kyoto [1]) | solubility in G1/S (log2) (HeLa Kyoto [2])
MSEIRKDTLKAILLELECHFTWNLLKEDIDLFEVEDTIGQQLEFLTTKSRLALYNLLAYVKHLKGQNKDALECLEQAEEIIQQEHSDKEEVRSLVTWGNYAWVYYHMDQLEEAQKYTGKIGNVCKKLSSPSNYKLECPETDCEKGWALLKFGGKYYQKAKAAFEKALEVEPDNPEFNIGYAITVYRLDDSDREGSVKSFSLGPLRKAVTLNPDNSYIKVFLALKLQDVHAEAEGEKYIEEILDQISSQPYVLRYAAKFYRRKNSWNKALELLKKALEVTPTSSFLHHQMGLCYRAQMIQIKKATHNRPKGKDKLKVDELISSAIFHFKAAMERDSMFAFAYTDLANMYAEGGQYSNAEDIFRKALRLENITDDHKHQIHYHYGRFQEFHRKSENTAIHHYLEALKVKDRSPLRTKLTSALKKLSTKRLCHNALDVQSLSALGFVYKLEGEKRQAAEYYEKAQKIDPENAEFLTALCELRLSI [IFIT5] | 0.0621 | 0.129
MAGLTLFVGRLPPSARSEQLEELFSQVGPVKQCFVVTEKGSKACRGFGYVTFSMLEDVQRALKEITTFEGCKINVTVAKKKLRNKTKEKGKNENSECPKKEPKAKKAKVADKKARLIIRNLSFKCSEDDLKTVFAQFGAVLEVNIPRKPDGKMRGFGFVQFKNLLEAGKALKGMNMKEIKGRTVAVDWAVAKDKYKDTQSVSAIGEEKSHESKHQESVKKKGREEEDMEEEENDDDDDDDDEEDGVFDDEDEEEENIESKVTKPVQIQKRAVKRPAPAKSSDHSEEDSDLEESDSIDDGEELAQSDTSTEEQEDKAVQVSNKKKRKLPSDVNEGKTVFIRNLSFDSEEEELGELLQQFGELKYVRIVLHPDTEHSKGCAFAQFMTQEAAQKCLLAASPENEAGGLKLDGRQLKVDLAVTRDEAAKLQTTKVKKPTGTRNLYLAREGLIRAGTKAAEGVSAADMAKRERFELLKHQKLKDQNIFVSRTRLCLHNLPKAVDDKQLRKLLLSATSGEKGVRIKECRVMRDLKGVHGNMKGQSLGYAFAEFQEHEHALKALRLINNNPEIFGPLKRPIVEFSLEDRRKLKMKELRIQRSLQKMRSKPATGEPQKGQPEPAKDQQQKAAQHHTEEQSKVPPEQKRKAGSTSWTGFQTKAEVEQVELPDGKKRRKVLALPSHRGPKIRLRDKGKVKPVHPKKPKPQINQWKQEKQQLSSEQVSRKKAKGNKTETRFNQLVEQYKQKLLGPSKGAPLAKRSKWFDS [RBM28] | 1.56 | -2.35
MAGNFWQSSHYLQWILDKQDLLKERQKDLKFLSEEEYWKLQIFFTNVIQALGEHLKLRQQVIATATVYFKRFYARYSLKSIDPVLMAPTCVFLASKVEEFGVVSNTRLIAAATSVLKTRFSYAFPKEFPYRMNHILECEFYLLELMDCCLIVYHPYRPLLQYVQDMGQEDMLLPLAWRIVNDTYRTDLCLLYPPFMIALACLHVACVVQQKDARQWFAELSVDMEKILEIIRVILKLYEQWKNFDERKEMATILSKMPKPKPPPNSEGEQGPNGSQNSSYSQS [CCNC] | -0.0468 | -0.272
MTTRQATKDPLLRGVSPTPSKIPVRSQKRTPFPTVTSCAVDQENQDPRRWVQKPPLNIQRPLVDSAGPRPKARHQAETSQRLVGISQPRNPLEELRPSPRGQNVGPGPPAQTEAPGTIEFVADPAALATILSGEGVKSCHLGRQPSLAKRVLVRGSQGGTTQRVQGVRASAYLAPRTPTHRLDPARASCFSRLEGPGPRGRTLCPQRLQALISPSGPSFHPSTRPSFQELRRETAGSSRTSVSQASGLLLETPVQPAFSLPKGEREVVTHSDEGGVASLGLAQRVPLRENREMSHTRDSHDSHLMPSPAPVAQPLPGHVVPCPSPFGRAQRVPSPGPPTLTSYSVLRRLTVQPKTRFTPMPSTPRVQQAQWLRGVSPQSCSEDPALPWEQVAVRLFDQESCIRSLEGSGKPPVATPSGPHSNRTPSLQEVKIQRIGILQQLLRQEVEGLVGGQCVPLNGGSSLDMVELQPLLTEISRTLNATEHNSGTSHLPGLLKHSGLPKPCLPEECGEPQPCPPAEPGPPEAFCRSEPEIPEPSLQEQLEVPEPYPPAEPRPLESCCRSEPEIPESSRQEQLEVPEPCPPAEPRPLESYCRIEPEIPESSRQEQLEVPEPCPPAEPGPLQPSTQGQSGPPGPCPRVELGASEPCTLEHRSLESSLPPCCSQWAPATTSLIFSSQHPLCASPPICSLQSLRPPAGQAGLSNLAPRTLALRERLKSCLTAIHCFHEARLDDECAFYTSRAPPSGPTRVCTNPVATLLEWQDALCFIPVGSAAPQGSP [TROAP] | 0.651 | 0.0401
MGNRGMEDLIPLVNRLQDAFSAIGQNADLDLPQIAVVGGQSAGKSSVLENFVGRDFLPRGSGIVTRRPLVLQLVNATTEYAEFLHCKGKKFTDFEEVRLEIEAETDRVTGTNKGISPVPINLRVYSPHVLNLTLVDLPGMTKVPVGDQPPDIEFQIRDMLMQFVTKENCLILAVSPANSDLANSDALKVAKEVDPQGQRTIGVITKLDLMDEGTDARDVLENKLLPLRRGYIGVVNRSQKDIDGKKDITAALAAERKFFLSHPSYRHLADRMGTPYLQKVLNQQLTNHIRDTLPGLRNKLQSQLLSIEKEVEEYKNFRPDDPARKTKALLQMVQQFAVDFEKRIEGSGDQIDTYELSGGARINRIFHERFPFELVKMEFDEKELRREISYAIKNIHGIRTGLFTPDMAFETIVKKQVKKIREPCLKCVDMVISELISTVRQCTKKLQQYPRLREEMERIVTTHIREREGRTKEQVMLLIDIELAYMNTNHEDFIGFANAQQRSNQMNKKKTSGNQDEILVIRKGWLTINNIGIMKGGSKEYWFVLTAENLSWYKDDEEKEKKYMLSVDNLKLRDVEKGFMSSKHIFALFNTEQRNVYKDYRQLELACETQEEVDSWKASFLRAGVYPERVGDKEKASETEENGSDSFMHSMDPQLERQVETIRNLVDSYMAIVNKTVRDLMPKTIMHLMINNTKEFIFSELLANLYSCGDQNTLMEESAEQAQRRDEMLRMYHALKEALSIIGDINTTTVSTPMPPPVDDSWLQVQSVPAGRRSPTSSPTPQRRAPAVPPARPGSRGPAPGPPPAGSALGGAPPVPSRPGASPDPFGPPPQVPSRPNRAPPGVPSRSGQASPSRPESPRPPFDL [DNM1] | -0.0969 | 0.233
MPRCPAGAMDEGPVDLRTRPKAAGLPGAALPLRKRPLRAPSPEPAAPRGAAGLVVPLDPLRGGCDLPAVPGPPHGLARPEALYYPGALLPLYPTRAMGSPFPLVNLPTPLYPMMCPMEHPLSADIAMATRADEDGDTPLHIAVVQGNLPAVHRLVNLFQQGGRELDIYNNLRQTPLHLAVITTLPSVVRLLVTAGASPMALDRHGQTAAHLACEHRSPTCLRALLDSAAPGTLDLEARNYDGLTALHVAVNTECQETVQLLLERGADIDAVDIKSGRSPLIHAVENNSLSMVQLLLQHGANVNAQMYSGSSALHSASGRGLLPLVRTLVRSGADSSLKNCHNDTPLMVARSRRVIDILRGKATRPASTSQPDPSPDRSANTSPESSSRLSSNGLLSASPSSSPSQSPPRDPPGFPMAPPNFFLPSPSPPAFLPFAGVLRGPGRPVPPSPAPGGS [BCL3] | -0.154 | 0.0652
